Results: the nanobody polyreactivity screen of Harvey et al. (2022)

Assay: yeast display, Sf9 membrane polyspecificity reagent, FACS + sequencing; frameworks hold sequencing errors
Summary of the method: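 Nanobodies from a synthetic yeast display library (Saccharomyces cerevisiae BJ5465), induced 36–48 hours with galactose, were stained 1 hour at 4 °C with 10% biotinylated, detergent-solubilized Sf9 membrane reagent, enriched on streptavidin microbeads, then FACS-sorted. Anti-HA (expression) and streptavidin (reagent binding) fluorescence set low and high (top ~1%) gates. Polyreactivity labels come from the gate of origin. Genes were colony-PCR amplified, MiSeq 2 × 250 sequenced and filtered by CDR length.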

Sequence | polyreactivity (PSR sort gate)
QVQLVESGGGLVQAGGSLRLSCAASGRTFYYYAMGWYRQAPGKERELVAVISWDDGSTYYADSVKGRFTISRDNAKNTVYLQMNSLKPEVTAVYYCAAYDYLDYADDYWGQGTQVTVSS | low polyreactivity
QVQLVESGGGLVQAGGSLRLSCAASGITFAENAMGWFRQAPGKERELVAAISGSGVDTYYADSVKGRFTISRDNAKNPVYLQMNSVKPEDTAVYYSNAVYYRSSYPSGRYGMDYWGQGTQVTVSS | high polyreactivity
QVQLVESGGGLVQAGGSHRLSCAASGITFNVYAMGWYRQATGKERELVAAISYNGGRTYYADSVKGRFTISRDNAKNTVYLQMNSLKPEDTAVYYCNTVSLSLRYDYWGQGTQVTVSS | high polyreactivity
QVQLVESGGGLVQAGGSLRLSCAASGRTFKAYAMGWYRQAPGKERELVAAITYSGGSTYYADSVKGRFTISRDNAKNTVYLQMNSLKPEDTAVYYCAASAQSRSRVKLYYWGQGTQVTVSS | high polyreactivity
QVQLVESGGGLVQAGGSLRLSCAASGGIFSYAMGWYRQAPGKERELVAAISRSAGITYYADSVKGRFTISRDNAKNTVYLQMNSLKPEDTAVYYCAASYYSYLYYSWGQGTQVTVSS | high polyreactivity
QVQLVESGGGLVQAGGSLRLSCAASGRTFSGYAMGWYRQAPGKERELVAVITYSGGSTYYADSVKGRFTISRDNAKNTVYLQMNSLKPEDTAVYYCNADYVIFYQLVEYDYWGQGTQVTVSS | low polyreactivity
QVQLVESGGGLVQAGGSLRLSCAASGFIFDYYAMGWYRQAPGKERELVAGISNGDTTYYADSVKGRFTISRDNAKNTVYLQMNSLKPEDTAVYYCNAKPFYWVLGGYDYWGQGTQVTVSS | low polyreactivity
QVQLVESGAGLVQAGGSLRLSCASSGSIFVSNAMGWYRKAPGKERELVAAISQSGGSTYYADSVKGRFTISRDNAKNTVYLLMNSLKPEDTAVYYCATPIRSGFRIYDYWGQGTQVTVSS | low polyreactivity
QVQLVESGGGLVQAGGSLRLSCAASGRIFFDYDMGWYRPAPGKERELVAAISSSGDSTYYADSVKGRFTISRDNAKNTVYLQMNSLKPEDTAVYYCNAKSVPVNYVAIKYDYWGQGTQVTVSS | high polyreactivity
HVQLQESGGGLVQAGGSLRLSCAASGNISYSRNMGWYRQAPGKERELVAAIDRGAITYYADSVQGRFTISRDNAKNTVYLQIYSLKPEDTAVYYCAAEYHDRWDHLYWGQGTQVTVSS | high polyreactivity
QVQLVESGGGLVQAGGSLRLSCAASGFIFTGYAMGWYRQAPGKERELVAAITKSGGSTYYADSVKGRFTISRDNAKNTVYLQMNSLKPEDTAVYYFNTYLWRWSKGGYLGQGTQVTVSS | high polyreactivity
QVQLVESGGGLVQAGGSLRLSCAASGITFRTNAMGWYRQAPGKERELVAVISSTGGRTYYADSVKGRFTISRDNAKNTVYLQMNSLNPEDTAVYYCAARAKYRFGYDYWGQGTQVTVSS | high polyreactivity
QVQLVESGGGLVQAGGSLRLSCAASGRTFYNYAMGWYRQAPGKERELVATINWSGGRTYYADSVKGRFTISRDNAKNTVYLQMNSLKAEDTAVYYCAKTWLYQSNEYGYWGQGTQVTVSS | low polyreactivity
QVQLVESGGGLVQAGGSLRLSCAASGFTFWFYAMGWYRQAPGKEREFVAGISRRGGSTYYADSVKGRFTISRDNAKNTVYLQMNSLKPEDTAVYYCASRQFHNGVTTAGYGYWGQGTQVTVSS | high polyreactivity
QVQLVESGGGLVQAGGSLRLSCAASGLTIRRYVMGWYRQAPGKERELVAAINWNGGSTYYADSVKGRFTISRDNAKNTVYLQMNSLKPEDTAVYYCAARSTYVYDYNYWGQGTQVTVSS | high polyreactivity
QVQLVESGGGLVQAGGSLRLTCAASGIIFGENARGWYRQAPGKERELVDAINSVGSTYYADSVKGRFTISRDNAKNTVYLQMNSLKPEDTAVYYCAAESWFLRWYRYDYWGQGTQVTVSS | low polyreactivity
QVQLVESGGGLVQAGGSLRLSCDASGRTFGVYAMGWYRQAPGKERELVAAISTRGGSTYYADSVKGRFTISRDNAKNTVYLQMNSLKPEDTAVYYCAAEQYVWGYWFNYGYWGQGTQVTVSS | high polyreactivity
QVQLVESGGGLVQAGGSLRLSCAASGSTLYPYDMGWYRQAPGKERELVAAIDSGGSTNYADSVKGRFTISRDNAKNTVYLQMNSLKPEDTAVYYCATEILTAARDTVVYQFYLGYYYWGQGTQVTVSS | low polyreactivity
QVQLVESGGGLVQAGGSLRLSCAASGSIFGSYAIGWYRHAPGKERELVAAIRYNSGSTYYADSVKGRFTISRDNAKNTVYLQMNSLKPEDTAVYYCAAYLLWGFDYWVQGTQVTVSS | high polyreactivity
QVQLVESGGGLVQAGGSLRLSSAASGFIFIIYAMGWYRPAPGKERELVAGIRWSGGSTYYADSVKGRFTISRDNAKNTVYLQMNSLKPEDTAVYYCNKDRGSLTLYTYDYWGQGTQVTVSS | low polyreactivity
QVQLVESGGGLVQAGGSLRLSCAASGRTFTRYAMGWYRQAPGKERELVAAISWSGTSTHYADSVKGGFTISRDNATNTVYLQMNSLKPEDTAVYYCAARRYPVLKYDYWGQGTQVTVSS | high polyreactivity
QVQLVESGGGLVQAGGSLRLSCAASGRTFVYYAMGWYRQAPGKERELVARISSGGSTYYADSVKGRFTISRDNAKNTVYLQMYSLKPEDTAVYYCAADAWYVWEYWWQPEDDYWGQGSQVTVSS | high polyreactivity

Sequence | polyreactivity (PSR sort gate)
QVQLVESGGGLFLAGGSLRLSCAASGSTFWYNMGWYRQAPGKDRELVAAISNSSGRTYYADSVKGRCTISRDNPKNTDYLQMKSLKPEDTAVYYSAADPKLGSRTGFYYWGQGTQVTVSS | high polyreactivity
QVQLVESGGGLVEAGGSLRLSCAASGRIFHANAMGWYRQAPGKERELVAGISRHGGRTYYADSVKGRFTMSRDNAKNTVYLQMNSLNPEDTAVYYCNALDWQYKELDYYWGQGTQVTVSS | high polyreactivity
QVQLVESGGGLVQAGGSRRLRCAASGSIISSYALGWYRQAPGQEMEFVAAISTGGRTYYADSVKGRFTISRDNGKNTVYLQMNSLKPEDTAVYYCAADGPLPHKVGTHTLDYWGQGTQVTVSS | low polyreactivity
QVQLVESGGGLVQAGGSLRLSCAASGFTFGTYVMGWYRQAPGKERELVARITYGGGRTYYADSVKGRFTISRDNAKNTVYLQMNSLKPEDTAVYYCNARVTYSRYFKGYNYWGQGTQVTVSS | high polyreactivity
QVQLVESGGGLVQAGGSLRLSCAASGSTFGRYAMGWYRQAPGKERELVAAISRRGASTYYADSVKGRFTISRDNAKNTVYLQMNSLKPEDTAVYYCATGYPIDLGREFDYWGQGIQVTVSS | high polyreactivity
QVQLVESGGGLVQAGGSLRLSCAASGITFDTYAMGCYIQAPGKERELVAAISKSGGSTYYADSVKGRFTISRDNAKNTVYLQMNSLKPEDTAVYYCNARYRNSGRYWDWYYYWGQGTQVTVSS | high polyreactivity
QVQLVESGGGLVQAGGSLRLSCAASGSIFLSYAMGWYRQAPGKERELVAAISRRGVRTYYADSVKGRFTISRDNAKNTVYLQMNSLKPEDTAVYYCAKDAYFPPWTYGSIFGLYDYWGQGTQVTVSS | low polyreactivity
QVQLVESGGGLVQAGGSLRLSCAASGSTFGTYAMGWYRQAPGKERELVAVISWSDGRTYYADSVKGRFTISRDNAKNTVYLQMISLKPEDTAVYYCNARLDTFVPRYGYWGQGTQVTVSS | high polyreactivity
QVQLVESGGGLVQAGGSLRLSCAASGRIFFYYAMGWYRQAPGKERELVATISYSGGGTYYADSVKGRFTISRDNAKNTVYLQMNSLKPEDTAAYYCNARWGTPYYIQDFDYWGQGTQVTVSS | low polyreactivity
QVQLVESGGGLVQAGGSLRLSCAASGLIFVSYAMGWYRQAPGKERELVAAISSGGSTYYADSVKGRFTISRDNAKNTVYLQMNSLKPEDTAVYYCAAEYVFRGYVGYDYWGQGTQVTVSS | low polyreactivity
QVQLEESGGGLVQAGGSLRLTCAASGITFGTYAMGWYRQAPGKEREFVAGYYADSVKGRFTISRDNAKNTVYLQMNSLKPEDTAVYYCAADYLYHDDVDYWGQGTQVTVSS | low polyreactivity
QVKLVESGGGLVQAGGSLRLSCAESGRIFHHYAMGWYRQAPGKERELVAAITGGGSTYYADSVKVRFTISRYNAKITVYLQMNSLKPEDTAVYYCAAPPFGYYEVGYDSWGQGSQVTVSS | low polyreactivity
QVQLVESGGGLVQAGGSLRLICAASGRTFTHNAMGWSRQAPGKERELVAGITSGCSTNYADSVKGRFTISRDNAKNTVYLQMNSLKPEDTAVYYCNKVFFWSRYKGYYYWGQGTQVTVSS | high polyreactivity
QVQLVESGGGLVQAGGSLRLTCAASGLTFYSNTMGWYIQAPGKERELVAAISWTGTSTYYADSVKVRFTISRDNAKNTVFLQMNSLKAEDTAVYYWNALGYARSYDSWGQGTQVTVSS | high polyreactivity
QVQLVESGGGLVQAGGSLRLSCAASGRIRFYARGWYRQAPGKEREFVASITRSGGSTYYADSVKGRFTISRDNAKYTVYLQMNSLKPEDTAVYYCAADDYFHDDYWGQGTQVTVSS | high polyreactivity
PVQLVESGGGLVQAGGSLRLSCAASGSIFVTYAMGWYRQAPGKERELVATITYSGGSTSYADSVKGRFTISRDNAKNTVYLQMNSLKPEDTAVYYCAADLDSDFDYWGQGTQVTVSS | low polyreactivity
QVQLVESGGGLVQAGGSLRLSCDASGRIFRGYAMGWYRKAPGKERELVAAISGRGGRTNYADSVKGRFTISRDNAKNTVYLQMNSLKTEDTAVYYCAVKRLSYPYVGHYYFWGQGTQVTVSS | high polyreactivity
QVQLVESGGGLVQAGGSLRLSCAASGSTFRANAMGWYRQAPGKERELVAAISSGGSTYYADSVKGRFTISRDNAKNTVYLQMNSLKPEDTAVYYCAAVTVKYDESGIYYSDDDYWGQGTQVTVSS | high polyreactivity
QVQLVESGGGLVQAGGSLRLSCAASGIIFDRYAMGWYRQAPGKERELVAAITYGGGSTYYADSVKGRFTISRDNAKNTVYLQMNSLKPEDTAVYYCAAVPRSGMYYWGQGTQVTVSS | high polyreactivity
QVQLVESGGGLVQAGGSLRLSCAASGSIFHIYAMGWYRQAPGKERELVAAISSGGRTNYADSVKGRFTISRDNAKNTVYLQMNSLKPEDTAVYYCAADWIYLPTRNYRVRVDYWGQGTQVTVSS | high polyreactivity
QVQLVESGGGLVQAGGSLRLSCAASGIIFRIYAMGWYRQAPGKEREFVAAISGSGDSTYYADSVKGRFTISRDNAKNTVYLQMNSLKPEDTAVYYCAARAIFRQGDRIYDSWGQGTQVTVSS | high polyreactivity
